Test results taken from US20160137746A1, “METHODS FOR TREATING HIGH CARDIOVASCULAR RISK PATIENTS WITH HYPERCHOLESTEROLEMIA” (Sanofi Biotechnology, priority 2014, published 2016).

System: high cardiovascular risk patients with hypercholesterolemia
Assay: ODYSSEY LONG TERM: long-term safety and tolerability
[1] = Final analysis, Safety Analysis
[2] = Final analysis, Safety Analysis (N = 1550)
[3] = Safety population, 223 patients, pre-specified analysis
[4] = Safety population, 562 patients, pre-specified analysis
[5] = Safety population, treatment period, pre-specified analysis, 150 Q2W
[6] = TEAE period, pre-specified analysis
[7] = alirocumab patients with two consecutive LDL-C <25 mg/dL (n = 562), pre-specified analysis

Description: Safety parameters (adverse events [including adjudicated cardiovascular events], laboratory data, vital signs, and ECG) were assessed throughout the study.
Safety endpoints assessed in this trial were: cardiovascular events; allergic events; local tolerability at injection site; other adverse events (including hemolytic anemia); laboratory tests: urinalysis, hematology (red blood cell count, red blood cell distribution width (RDW), reticulocyte count, hemoglobin, hematocrit, platelets, white blood cell count with differential blood count), standard chemistry (sodium, potassium, chloride, bicarbonate, calcium, phosphorous, urea nitrogen, creatinine, uric acid, total protein, albumin, LDH, γ Glutamyl Transferase [γGT]), Vitamin E (alpha tocopherol) and other Fat Soluble Vitamins, cortisol (and reflexive ACTH levels, as needed, followed by ACTH stimulation test, as needed), Gonadal Hormone Assessments, Hepatitis C antibody, liver panel (ALT, AST, ALP, and total bilirubin), and CPK; vital signs including heart rate and blood pressure; and 12-lead ECG.
The safety population included all randomized patients who received at least one dose or part of a dose of the double-blind IMP.
Safety analyses were descriptive, performed on the safety population according to treatment actually received. The safety analysis focused on the TEAE period defined as the time from the first dose of double-blind injection up to 70 days after the last double-blind injection. TEAE which developed, worsened or became serious or PCSA occurring after the patient's first injection in the open-label extension study (LTS13643) were not considered in the TEAE period. TEAE period was truncated at the common study cut-off date.

Alirocumab: human anti-PCSK9 antibody; HCVR SEQ ID NO:1, LCVR SEQ ID NO:6; CDRs SEQ ID NOs 2/3/4/7/8/10
Alanine aminotransferase >3 times ULN, % [1]: (1.8) % | Alanine aminotransferase >3 times ULN, n/N [1]: 28/1533 | Aspartate aminotransferase >3 times ULN, % [1]: (1.4) % | Aspartate aminotransferase >3 times ULN, n/N [1]: 22/1533 | Creatine kinase >3 times ULN, % [1]: (3.7) % | Creatine kinase >3 times ULN, n/N [1]: 56/1507 | Diabetes in patients with no history of diabetes, % [1]: (1.8) % | Diabetes in patients with no history of diabetes, n/N [1]: 18/994 | Worsening of diabetes in patients with history of diabetes, % [1]: (12.9) % | Worsening of diabetes in patients with history of diabetes, n/N [1]: 72/556 | Amnesia, % of patients [2]: (0.3) % | Amnesia, No. of patients [2]: 5 | CHD death including unknown cause, % of patients [2]: (0.3) % | CHD death including unknown cause, No. of patients [2]: 4 | Confusional state, % of patients [2]: (0.3) % | Confusional state, No. of patients [2]: 4 | Congestive heart failure requiring hospitalization, % of patients [2]: (0.6) % | Congestive heart failure requiring hospitalization, No. of patients [2]: 9 | Fatal and non-fatal ischemic stroke, % of patients [2]: (0.6) % | Fatal and non-fatal ischemic stroke, No. of patients [2]: 9 | General allergic reaction events, % of patients [2]: (10.1) % | General allergic reaction events, No. of patients [2]: 156 | Hemolytic anemia, No. of patients [2]: 0 | Ischemia-driven coronary revascularization procedure, % of patients [2]: (3.1) % | Ischemia-driven coronary revascularization procedure, No. of patients [2]: 48 | Local injection site reaction, % of patients [2]: (5.9) % | Local injection site reaction, No. of patients [2]: 91 | Memory impairment, % of patients [2]: (0.3) % | Memory impairment, No. of patients [2]: 4 | Myalgia, % of patients [2]: (5.4) % | Myalgia, No. of patients [2]: 84 | Neurocognitive disorders, % of patients [2]: (1.2) % | Neurocognitive disorders, No. of patients [2]: 18 | Neurological events, % of patients [2]: (4.2) % | Neurological events, No. of patients [2]: 65 | Non-fatal MI, % of patients [2]: (0.9) % | Non-fatal MI, No. of patients [2]: 14 | Ophthalmological events, % of patients [2]: (2.9) % | Ophthalmological events, No. of patients [2]: 35 | Positively adjudicated cardiovascular events (including all cardiovascular AEs listed above), % of patients [2]: (4.6) % | Positively adjudicated cardiovascular events (including all cardiovascular AEs listed above), No. of patients [2]: 72 | Post hoc analysis of a subgroup of adjudicated MACE, % of patients [2]: (1.7) % | Post hoc analysis of a subgroup of adjudicated MACE, No. of patients [2]: 27 | TEAEs leading to death, % of patients [2]: (0.5) % | TEAEs leading to death, No. of patients [2]: 8 | TEAEs leading to discontinuation, % of patients [2]: (7.2) % | TEAEs leading to discontinuation, No. of patients [2]: 111 | TEAEs, % of patients [2]: (81.0) % | TEAEs, No. of patients [2]: 1255 | Treatment-emergent SAEs, % of patients [2]: (18.7) % | Treatment-emergent SAEs, No. of patients [2]: 290 | Time to the first calculated LDL-C value <15 mg/dL, mean (SD) [3]: 12.99 (12.43) weeks | Time to the first calculated LDL-C value <15 mg/dL, median [3]: 8.14 weeks | Time to the first calculated LDL-C value <25 mg/dL, mean (SD) [4]: 11.03 (11.51) weeks | Time to the first calculated LDL-C value <25 mg/dL, median [4]: 4.86 weeks | Patients with 2 consecutive calculated LDL-C value <15 mg/dL, % [5]: (14.8%) | Patients with 2 consecutive calculated LDL-C value <15 mg/dL, n/N [5]: 223/1503 | Patients with 2 consecutive calculated LDL-C value <25 mg/dL, % [5]: (37.4%) | Patients with 2 consecutive calculated LDL-C value <25 mg/dL, n/N [5]: 562/1503 | Cardiovascular death per adjudication [6]: 5 (0.3%) n (%) | Patients with decreased plasma vitamin E levels below the outer limit of normal (31 out of 1461) [6]: 2.1% | SAEs [6]: 255 (16.5%) n (%) | AE of special interest: All adjudicated cardiovascular events, % of patients [7]: 4.3% | AE of special interest: General allergic reaction events, % of patients [7]: 8.0% | AE of special interest: Haemolytic anaemia, % (n) of patients [7]: 0 | AE of special interest: Neurocognitive disorders, % of patients [7]: 0.7% | AE of special interest: Neurological events, % of patients [7]: 3.2% | AE of special interest: Ophthalmological events, % of patients [7]: 2.5% | AE of special interest: Treament-emergent local injection site reactions, % of patients [7]: 6.2% | Neurocognitive AE: Amnesia, % (n) of patients [7]: 0 | Neurocognitive AE: Any neurocognitive disorder, % of patients [7]: 0.7% | Neurocognitive AE: Confusion postoperative, % (n) of patients [7]: 0 | Neurocognitive AE: Confusional state, % of patients [7]: 0.2% (1) | Neurocognitive AE: Dementia, % of patients [7]: 0.2% (1) | Neurocognitive AE: Disorientation, % (n) of patients [7]: 0 | Neurocognitive AE: Disturbance in attention, % (n) of patients [7]: 0 | Neurocognitive AE: Frontotemporal dementia, % of patients [7]: 0.2% (1) | Neurocognitive AE: Memory impairment, % (n) of patients [7]: 0 | Neurocognitive AE: Transient global amnesia, % (n) of patients [7]: 0 | TEAE ALT increase, % of patients [7]: 0.7% | TEAE AST increase, % of patients [7]: 0% | TEAE Angina pectoris, % of patients [7]: 1.8% (10) | TEAE Arthralgia, % of patients [7]: 3.2% (18) | TEAE Atrial fibrillation, % of patients [7]: 1.6% (9) | TEAE Back pain, % of patients [7]: 5.0% (28) | TEAE Bronchitis, % of patients [7]: 5.2% (29) | TEAE CPK increase, % of patients [7]: 0.2% | TEAE Cellulitis, % of patients [7]: 1.6% (9) | TEAE Confusion, % of patients [7]: 1.2% (7) | TEAE Constipation, % of patients [7]: 1.6% (9) | TEAE Cough, % of patients [7]: 2.0% (11) | TEAE Depression, % of patients [7]: 1.4% (8) | TEAE Diarrhea, % of patients [7]: 3.9% (22) | TEAE Dizziness, % of patients [7]: 1.4% (8) | TEAE Fall, % of patients [7]: 1.6% (9) | TEAE Fatigue, % of patients [7]: 3.0% (17) | TEAE Gastoenteritis, % of patients [7]: 0.7% (4) | TEAE Headache, % of patients [7]: 1.8% (10) | TEAE Hypertension, % of patients [7]: 2.0% (11) | TEAE Influenza, % of patients [7]: 4.1% (23) | TEAE Injection site reaction, % of patients [7]: 3.6% (20) | TEAE Lower respiratory tract infection (LRTI), % of patients [7]: 2.8% (16) | TEAE Muscle spasms, % of patients [7]: 2.8% (16) | TEAE Musculoskeletal pain, % of patients [7]: 1.4% (8) | TEAE Myalgia, % of patients [7]: 3.0% (17) | TEAE Nasopharyngitis, % of patients [7]: 10.0% (56) | TEAE Nausea, % of patients [7]: 0.9% (5) | TEAE Non-cardiac chest pain, % of patients [7]: 2.0% (11) | TEAE Osteoarthritis, % of patients [7]: 2.1% (12) | TEAE Pain in extremity, % of patients [7]: 2.1% (12) | TEAE Rhinitis, % of patients [7]: 1.2% (7) | TEAE Sinusitis, % of patients [7]: 3.0% (17) | TEAE Type-2 diabetes mellitus, % of patients [7]: 2.5% (14) | TEAE leading to death, % of patients [7]: 0.5% (3) | TEAEs by System-Organ-Class: Blood and lymphatic system disorders, % of patients [7]: 1.6% (9) | TEAEs by System-Organ-Class: Cardiac disorders, % of patients [7]: 7.5% (42) | TEAEs by System-Organ-Class: Ear and labyrinth disorders, % of patients [7]: 1.2% (7) | TEAEs by System-Organ-Class: Eye disorders, % of patients [7]: 6.4% (36) | TEAEs by System-Organ-Class: Gastrointestinal disorders, % of patients [7]: 13.7% (77) | TEAEs by System-Organ-Class: General disorders and administration site conditions, % of patients [7]: 11.0% (62) | TEAEs by System-Organ-Class: Injury, poisoning, and procedural complications, % of patients [7]: 10.5% (59)
